# Experimental data reported in patent publication US20100280101, “METHOD OF INHIBITING CANCER CELL PROLIFERATION, PROLIFERATION INHIBITOR AND SCREENING METHOD” (University of Occupational and Environmental Health Japan, published 2010).
# T1: ZNF143 (UniProt P52747 SEQ:1-638)
# T1 sequence: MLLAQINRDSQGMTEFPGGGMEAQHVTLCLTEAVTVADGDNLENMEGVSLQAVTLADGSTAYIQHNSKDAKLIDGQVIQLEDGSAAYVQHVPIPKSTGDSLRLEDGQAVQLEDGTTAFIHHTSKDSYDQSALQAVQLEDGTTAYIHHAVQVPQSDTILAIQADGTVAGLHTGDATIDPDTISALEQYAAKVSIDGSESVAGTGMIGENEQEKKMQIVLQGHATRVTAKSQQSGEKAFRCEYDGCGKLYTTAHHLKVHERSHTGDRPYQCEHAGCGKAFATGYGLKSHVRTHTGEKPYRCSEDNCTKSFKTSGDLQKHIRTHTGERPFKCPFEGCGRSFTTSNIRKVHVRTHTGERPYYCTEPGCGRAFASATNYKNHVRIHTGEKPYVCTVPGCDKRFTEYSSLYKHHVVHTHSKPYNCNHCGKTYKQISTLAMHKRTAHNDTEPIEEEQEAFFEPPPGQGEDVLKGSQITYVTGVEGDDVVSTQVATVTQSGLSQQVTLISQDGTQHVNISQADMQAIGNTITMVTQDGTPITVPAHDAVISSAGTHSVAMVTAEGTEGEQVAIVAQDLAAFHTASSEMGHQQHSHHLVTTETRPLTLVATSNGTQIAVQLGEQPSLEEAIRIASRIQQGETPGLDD
# Target: T1, ZNF143
# Test: EMSA; also ChIP
row,Binder,binding result
1,CCNF promoter site (dsDNA) DNA 1: ACCCCCAGCTTGCACGGCC DNA 2: GGCCGTGCAAGCTGGGGGT,binds
2,UHRF1 promoter site (dsDNA) DNA 1: ACTCCCAGGATGCCCTTCC DNA 2: GGAAGGGCATCCTGGGAGT,binds
3,BIRC5 (survivin) promoter site (dsDNA) DNA 1: GCCCCCACCCTCCACTGGG DNA 2: CCCAGTGGAGGGTGGGGGC,binds
4,PLK1 promoter site 2 (dsDNA) DNA 1: GCTCCCATGGTGCCGCGCG DNA 2: CGCGCGGCACCATGGGAGC,binds
5,MCM4 promoter site 2 (dsDNA) DNA 1: TTTCCCGGGGACCCCTGCG DNA 2: CGCAGGGGTCCCCGGGAAA,binds
6,ESPL1 promoter site 2 (dsDNA) DNA 1: ACTCCCAGCGTGCCGCGCG DNA 2: CGCGCGGCACGCTGGGAGT,binds
7,CDCA4 promoter site (dsDNA) DNA 1: GCTCCCAGGTCTCCGCGCG DNA 2: CGCGCGGAGACCTGGGAGC,binds
8,CDT1 promoter site 2 (dsDNA) DNA 1: CCTCCCCCCGTGCTCTGCC DNA 2: GGCAGAGCACGGGGGGAGG,binds
9,BUB1 promoter site (dsDNA) DNA 1: TCTCCCCACCTGCCTCCCG DNA 2: CGGGAGGCAGGTGGGGAGA,binds
10,MCM3 promoter site (dsDNA) DNA 1: ACTCCCAGAACGCAATGCC DNA 2: GGCATTGCGTTCTGGGAGT,binds
11,CCNE2 promoter site (dsDNA) DNA 1: CTTCCCACCCGGCCAGGTC DNA 2: GACCTGGCCGGGTGGGAAG,binds
12,MCM4 promoter site 1 (dsDNA) DNA 1: GTACCCACCCAGCACCGCG DNA 2: CGCGGTGCTGGGTGGGTAC,binds
13,CDKN2C promoter site (dsDNA) DNA 1: ATCCCCAAAATCCAAGCCA DNA 2: TGGCTTGGATTTTGGGGAT,binds
14,MCM5 promoter site (dsDNA) DNA 1: GTGCCCATTTTGCATTGGG DNA 2: CCCAATGCAAAATGGGCAC,binds
15,ESPL1 promoter site 1 (dsDNA) DNA 1: TTACCCGCCGCGCTGCGCG DNA 2: CGCGCAGCGCGGCGGGTAA,binds

# Target: T1, ZNF143
# Test: EMSA; also ChIP; binding retained without 5'-terminal 6 bases
row,Binder,binding result
1,PFS2 promoter site (dsDNA) DNA 1: TCTCGACTTCCCAAAGTGCTGGGAT DNA 2: ATCCCAGCACTTTGGGAAGTCGAGA,binds
2,RFC2 promoter site (dsDNA) DNA 1: GGTGGAATTCCCATCTTGCAGCCGA DNA 2: TCGGCTGCAAGATGGGAATTCCACC,binds
3,MCM2 promoter site (dsDNA) DNA 1: CCTCGGCTTCCCAAAGTGCTGGGAT DNA 2: ATCCCAGCACTTTGGGAAGCCGAGG,binds
4,PLK1 promoter site 1 (dsDNA) DNA 1: CAGGGCGCTCCCATGGTGCCGCGCG DNA 2: CGCGCGGCACCATGGGAGCGCCCTG,binds
5,CDC6 promoter site (dsDNA) DNA 1: ACTACGCCTCCCAGCGTGCTTTGCG DNA 2: CGCAAAGCACGCTGGGAGGCGTAGT,binds
6,CDCA8 promoter site 2 (dsDNA) DNA 1: CCCGCCCTCCCCACCAACCCACCCG DNA 2: CGGGTGGGTTGGTGGGGAGGGCGGG,binds
7,CDT1 promoter site 1 (dsDNA) DNA 1: CCCTTCCCTCCCCCCGTGCTCTGCC DNA 2: GGCAGAGCACGGGGGGAGGGAAGGG,binds
8,GTSE1 promoter site (dsDNA) DNA 1: ACTACAATACCCAGGACGCACCCAG DNA 2: CTGGGTGCGTCCTGGGTATTGTAGT,binds
9,ZNF367 (CDC14B) promoter site (dsDNA) DNA 1: CGGGTCCTTCCCACCTCGCCATTGG DNA 2: CCAATGGCGAGGTGGGAAGGACCCG,binds
10,AURKB promoter site (dsDNA) DNA 1: CCTCGGCTTCCCAAAATGCTGGGAT DNA 2: ATCCCAGCATTTTGGGAAGCCGAGG,binds
11,CDC2L6 promoter site 1 (dsDNA) DNA 1: AATACAGCTCCCAGGTTACCTCGGG DNA 2: CCCGAGGTAACCTGGGAGCTGTATT,binds
12,RFC4 promoter site (dsDNA) DNA 1: CCAGCCTAGCCCACTGTGCATGAAG DNA 2: CTTCATGCACAGTGGGCTAGGCTGG,binds
13,CCNA2 promoter site (dsDNA) DNA 1: CAGGCACTGCCCAGCGTGGCGAGCC DNA 2: GGCTCGCCACGCTGGGCAGTGCCTG,binds
14,CDK2 promoter site (dsDNA) DNA 1: CATTGCTTTCCCATCCTGCTACTCA DNA 2: TGAGTAGCAGGATGGGAAAGCAATG,binds
15,CDC2L6 promoter site 2 (dsDNA) DNA 1: ACTTCATTTCCCAGGAGCCTCCGCG DNA 2: CGCGGAGGCTCCTGGGAAATGAAGT,binds
16,SPBC25 promoter site (dsDNA) DNA 1: ACTACGAATCCCAGAATGCCCTGTT DNA 2: AACAGGGCATTCTGGGATTCGTAGT,binds
17,CDCA8 promoter site 1 (dsDNA) DNA 1: ACTACTACTCCCGGCAGGCCTTGTG DNA 2: CACAAGGCCTGCCGGGAGTAGTAGT,binds
18,CDCA5 promoter site (dsDNA) DNA 1: TGCGCCTCTCCCTTCAGCCCCGGCC DNA 2: GGCCGGGGCTGAAGGGAGAGGCGCA,binds
19,WEE1 promoter site (dsDNA) DNA 1: TTAATCTGTCCCTTAATGCACTTAC DNA 2: GTAAGTGCATTAAGGGACAGATTAA,binds
20,CDCA3 promoter site (dsDNA) DNA 1: GACGTAGTTCCCATAGGCCCTCCAC DNA 2: GTGGAGGGCCTATGGGAACTACGTC,binds
